From patent US12187785B2, “Recombinant protein and fragments thereof, method for producing said recombinant protein, synthetic gene and use of sculptin or recombinant protein for preparing a medicament or pharmaceutical composition for the prophylaxis and/or treatment of thromboembolic diseases or as a direct and specific …” (priority 2017, dated 2025)

Legend:
factor Xa = target: T1, factor Xa (Homo sapiens, UniProt P00742); test: Degradation of recombinant protein by factor Xa (SDS-PAGE and residual thrombin inhibition); format: in vitro ADME; conditions: for thrombin inhibition after incubation: diluted to 100 pM
T1 construct: Serine protease (100 pM; thrombin, plasmin, trypsin or factor Xa) was incubated with recombinant protein; For factor Xa activity, buffer contained phosphatidylserine and phosphatidylcholine 50 μM
Protocol: (§1) Recombinant protein (10 μM) was incubated with or without serine protease 1 μM (thrombin, plasmin, trypsin or factor Xa) in phosphate buffer 50 mM containing NaCl 150 mM and 0.1% of PEG 6000, pH 7.4 for 4, 6, 7 or 18 h at 37° C. Reaction mixtures (20 μl) were split by SDS-PAGE. (A) hydrolysis SDS-PAGE (15%) of recombinant protein by serine proteases following 6 h of incubation. (B) Percentage of thrombin inhibition by recombinant protein following 6 h of incubation with serine protease (see experimental procedures). (C) hydrolysis SDS-PAGE (15%) of recombinant protein by serine proteases following 18 h of incubation. (D) Percentage of thrombin inhibition by recombinant protein following 18 h of incubation with serine protease (see experimental procedures). Numbering of (B) and (D) corresponds to numbering of (A) and (C), respectively, and recombinant protein control is represented by CTRL. Recombinant protein (strip 1); thrombin (strip 2) and thrombin with recombinant protein (strip 3); plasmin (strip 4) and plasmin with recombinant protein (strip 5); trypsin (strip 6) and trypsin with recombinant protein (strip 7); factor Xa (strip 8) and factor Xa with recombinant protein (strip 9) and protein marker (strip 10; in A). (E) Identification of cleavage sites of thrombin in recombinant protein following 7 h of incubation. (F) Identification of cleavage sites of factor Xa in recombinant protein following 4 h of incubation. Cleavage sites of thrombin and factor Xa in recombinant protein sequence are shown in FIGS. S1 and S2, respectively. Experimental procedure for (C), (D), (E) and (F) was the same as for (A) and (B), except the incubation time and the type of serine protease used. FIG. 5 discloses “GKPQG” as SEQ ID NO: 18, “MPKGG” as SEQ ID NO: 19, and “SDAVH” as SEQ ID NO: 20.
Afterwards, it was determined whether serine proteases, like thrombin, plasmin, factor Xa and trypsin, hydrolyze recombinant protein. For this purpose, recombinant protein (10 μM) was incubated with or without serine protease 1 μM (thrombin, plasmin, trypsin or factor Xa) in phosphate buffer 50 mM containing NaCl 150 mM and 0.1% of PEG, pH 7.4 for 6 h or 18 h at 37° C. SDS-PAGE of reaction mixture following 6 h of incubation presented that, compared to control strip of recombinant protein, strip intensity of 20-kDa (corresponding to non-digested recombinant protein) decreased and strips of lower molecular weight appeared in recombinant protein incubated by thrombin (FIG. 5A). […] Upon addition of chromogenic substrate S-2238, the hydrolysis thereof by thrombin was monitored in spectrophotometer way. […]

plasmin = target: T2, plasmin (Homo sapiens, UniProt P00747); test: Degradation of recombinant protein by plasmin (SDS-PAGE and residual thrombin inhibition); format: in vitro ADME
T2 construct: Serine protease (100 pM; thrombin, plasmin, trypsin or factor Xa) was incubated with recombinant protein
Protocol: as §1
Afterwards, it was determined whether serine proteases, like thrombin, plasmin, factor Xa and trypsin, hydrolyze recombinant protein. […] Upon addition of chromogenic substrate S-2238, the hydrolysis thereof by thrombin was monitored in spectrophotometer way. […]

isolated human plasma [1] = test: Activated partial thromboplastin time (aPTT) in isolated human plasma; format: biochemical; conditions: plasma of healthy human volunteers, incubation 3 min. at 37° C.
Protocol: (§2) Plasma was obtained from blood of healthy human volunteer and incubated with different concentrations of recombinant protein. APTT, PT and TT were determined like experimental procedure. (A) Activated partial thromboplastin time (B) prothrombin time and (C) thrombin time. Ctrl is related to plasma and Sal is related to plasma plus saline.
(§3) Finally, PT, aPTT and TT were assessed in isolated plasma of healthy human volunteers following incubation with recombinant protein for 3 min. at 37° C. […] Maximum test reading for aPTT was achieved following 12 nM, while for PT that was achieved following 6 nM of recombinant protein (FIGS. 11A and 11B).

isolated human plasma [2] = test: Prothrombin time (PT) in isolated human plasma; format: biochemical; conditions: plasma of healthy human volunteers, incubation 3 min. at 37° C.
Protocol: as §2, §3

trypsin = target: T3, trypsin (Bos taurus, UniProt P00760); test: Serine protease inhibition test, trypsin (chromogenic substrate); format: biochemical; conditions: recombinant protein 1, 100, 200 nM; protease 100 pM; 6 h at 37° C.
T3 construct: gene PRSS1
T3 sequence (P00760 24-246): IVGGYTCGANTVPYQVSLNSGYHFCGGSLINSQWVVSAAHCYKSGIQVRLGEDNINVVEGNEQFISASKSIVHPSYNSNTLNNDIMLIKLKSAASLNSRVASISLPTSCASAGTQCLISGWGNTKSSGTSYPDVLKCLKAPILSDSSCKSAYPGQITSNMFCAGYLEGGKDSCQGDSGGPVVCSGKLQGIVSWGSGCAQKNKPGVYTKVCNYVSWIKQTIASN
Protocol: (A) Inhibition of serine proteases through recombinant protein. Serine protease (100 pM; thrombin, plasmin, trypsin or factor Xa) was incubated with recombinant protein (1, 100 and 200 nM) in phosphate buffer 50 mM containing NaCl 150 mM and 0.1% of PEG 6000, pH 7.4 for 6 h at 37° C. Following addition of chromogenic substrate corresponding to reaction mixture, hydrolysis thereof was monitored at 405 nm. For factor Xa activity, buffer contained phosphatidylserine and phosphatidylcholine 50 μM. […] (B) Typical curves for hydrolysis of chromogenic substrate S-2238 (15 μM) by thrombin 0.1 nM in absence (trace a) or presence of recombinant protein (trace b, 15 pM; trace c, 30 pM; trace d, 60 pM and trace e, 100 pM) in phosphate buffer 50 mM containing NaCl 150 mM and 0.1% of PEG 6000, pH 7.4 at 37° C. (C) Residual activity of thrombin in presence of increasing concentration of recombinant protein. (D) Dose-response curves for thrombin inhibition by recombinant protein. Percentage of thrombin inhibition was plotted versus the concentration record of recombinant protein. Experimental condition of (C) and (D) is the same as in (B).
The first performed experiment was the test of serine proteases inhibition through recombinant protein. […] Hydrolysis of a chromogenic substrate through serine proteases in the presence and absence of recombinant protein was monitored in a spectrophotometer way. […]

T1 sequence (P00742 235-488 limits assumed): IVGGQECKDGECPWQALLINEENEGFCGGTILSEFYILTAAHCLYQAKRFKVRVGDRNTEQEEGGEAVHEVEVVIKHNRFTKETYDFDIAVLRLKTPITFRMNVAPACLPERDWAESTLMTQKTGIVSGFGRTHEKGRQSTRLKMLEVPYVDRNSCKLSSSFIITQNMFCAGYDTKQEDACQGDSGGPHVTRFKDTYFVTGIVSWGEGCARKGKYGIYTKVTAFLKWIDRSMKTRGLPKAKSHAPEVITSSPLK
T1 sequence (P00742 41-179 limits assumed): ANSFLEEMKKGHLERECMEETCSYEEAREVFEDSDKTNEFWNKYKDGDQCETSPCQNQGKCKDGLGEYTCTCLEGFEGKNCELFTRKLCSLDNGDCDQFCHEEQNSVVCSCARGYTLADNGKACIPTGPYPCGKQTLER
T2 sequence (P00747 581-810 limits assumed, species assumed): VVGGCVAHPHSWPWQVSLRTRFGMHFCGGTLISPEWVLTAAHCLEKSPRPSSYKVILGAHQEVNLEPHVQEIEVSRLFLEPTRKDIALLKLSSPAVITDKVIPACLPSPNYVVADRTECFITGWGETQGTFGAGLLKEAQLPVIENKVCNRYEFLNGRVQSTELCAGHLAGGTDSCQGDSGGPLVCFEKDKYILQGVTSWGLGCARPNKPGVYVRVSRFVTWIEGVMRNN
T2 sequence (P00747 97-580 limits assumed, species assumed): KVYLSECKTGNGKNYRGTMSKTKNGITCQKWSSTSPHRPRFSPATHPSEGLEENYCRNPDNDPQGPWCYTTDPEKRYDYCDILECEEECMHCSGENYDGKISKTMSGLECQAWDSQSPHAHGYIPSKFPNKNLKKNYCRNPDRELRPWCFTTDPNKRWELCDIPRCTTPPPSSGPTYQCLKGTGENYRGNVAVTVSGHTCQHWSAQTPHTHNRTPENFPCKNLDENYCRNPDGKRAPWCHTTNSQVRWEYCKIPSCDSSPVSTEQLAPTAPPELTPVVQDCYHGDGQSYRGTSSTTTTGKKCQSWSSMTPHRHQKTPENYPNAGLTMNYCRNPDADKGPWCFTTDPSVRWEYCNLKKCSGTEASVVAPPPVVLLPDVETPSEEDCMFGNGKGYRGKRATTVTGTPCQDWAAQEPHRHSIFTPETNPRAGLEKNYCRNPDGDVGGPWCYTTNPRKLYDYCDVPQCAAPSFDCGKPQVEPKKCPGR

B1: GKPQGHPHDALEARSDAVHTAVPKMPKGGHGGFEPIPIDYDERALEARSDAVHTAVPKMPKGGLGGFEPIPIDYDERALEARSDAVHTAVPKMPKGGHGGFEPIPIDYDERALEARSDAVHTAVPKMPKGGHGGFEPIPIDYDERALHALEHHHHHH (protein)
chain: GKPQGHPHDALEARSDAVHTAVPKMPKGGHGGFEPIPIDYDERALEARSDAVHTAVPKMPKGGLGGFEPIPIDYDERALEARSDAVHTAVPKMPKGGHGGFEPIPIDYDERALEARSDAVHTAVPKMPKGGHGGFEPIPIDYDERALHALEHHHHHH
modifications: Sculptin recombinat protein
notes: recombinant His-tagged protein modified from tick sculptin, expressed in E. coli
Question: B1 was tested. Which “SDS-PAGE, hydrolysis of recombinant protein” value (factor Xa; 10 μM protein with 1 μM factor Xa, 6 h at 37° C.) did it give?
Answer: converted the recombinant protein in fragments

Question: What about the “SDS-PAGE strip of 20-kDa (recombinant protein monomer)” value (factor Xa; 10 μM protein with 1 μM factor Xa, 18 h at 37° C.) of the same molecule?
Answer: completely disappeared

Question: What about the “thrombin inhibition after incubation” value (factor Xa; after 6 h digestion with factor Xa, thrombin 100 pM) of the same molecule?
Answer: retained its thrombin inhibition activity

Question: What about the “thrombin inhibition after incubation” value (factor Xa; after 18 h incubation with factor Xa) of the same molecule?
Answer: even inhibited the thrombin activity

Question: What about the “SDS-PAGE strip of 20-kDa (non-digested recombinant protein)” value (plasmin; 10 μM protein with 1 μM plasmin, 6 h at 37° C.) of the same molecule?
Answer: completely disappeared

Question: And the “SDS-PAGE strip of 20-kDa (recombinant protein monomer)” value (plasmin; 10 μM protein with 1 μM plasmin, 18 h at 37° C.)?
Answer: completely disappeared

Question: What about the “thrombin inhibition after incubation” value (plasmin; after 18 h incubation with plasmin, diluted to 100 pM) of the same molecule?
Answer: did not inhibit thrombin

Question: What about the aPTT (isolated human plasma [1]) of the same molecule?
Answer: prolonged by recombinant protein in concentration-dependent way

Question: And the “concentration at which maximum test reading for aPTT was achieved” value (isolated human plasma [1])?
Answer: 12 nM

Question: What about the PT (isolated human plasma [2]) of the same molecule?
Answer: prolonged by recombinant protein in concentration-dependent way

Question: And the “concentration at which maximum test reading for PT was achieved” value (isolated human plasma [2])?
Answer: 6 nM

Question: What about the inhibition of trypsin (trypsin) of the same molecule?
Answer: did not inhibit
